{
  "source": "paper PMC3624760",
  "key": {"[1]": {"target": "DNA polymerase beta D160N (UniProt P06746 1-335, D160N)", "test": "active site titration"}, "DNA polymerase beta WT": {"target": "DNA polymerase beta WT (UniProt P06746 1-335)", "test": "active site titration"}},
  "data": [
    {"binder": "1 bp-gap (dsDNA) DNA 1: CGCGCCAATCGAGCCATGTCGT DNA 2: GTCAACGACCCACCATTCAAGA DNA 3: TCTTGAATGGTGGGTCGTTGACGACGACATGGCTCGATTGGCGCG", "values": [
      {"measurement": "Kd", "setting": "[1]", "value": 21, "unit": "nM"},
      {"measurement": "Kd", "setting": "DNA polymerase beta WT", "value": 16, "unit": "nM"}
    ]}
  ]
}
